Test results taken from patent CN109021108A (UNIV NANJING MEDICAL, dated 2018).

Legend:
GPC3-his蛋白 = molecular target: T1, GPC3-his蛋白 (UniProt P51654 25-559); test: ELISA titration, GPC3-his coated at 5 μg/ml, 32A9 IgG from 20 μg/ml in 1:2 dilutions, fitted affinity curve
T1 construct: also called GPC3蛋白; not shown: his tag

[1] = molecular target: T2, GPC3 on A431-GPC3细胞 (A431 cells stably transfected with GPC3 cDNA) (UniProt P51654 25-554); test: flow cytometry titration on A431-GPC3 cells, 32A9 IgG from 60 μg/ml in 1:2 dilutions, fitted affinity curve
T2 construct: whole, on cells; also called GPC3阳性细胞; GPC3阳性靶细胞
T2 sequence (P51654 25-554 limits assumed, form in doubt): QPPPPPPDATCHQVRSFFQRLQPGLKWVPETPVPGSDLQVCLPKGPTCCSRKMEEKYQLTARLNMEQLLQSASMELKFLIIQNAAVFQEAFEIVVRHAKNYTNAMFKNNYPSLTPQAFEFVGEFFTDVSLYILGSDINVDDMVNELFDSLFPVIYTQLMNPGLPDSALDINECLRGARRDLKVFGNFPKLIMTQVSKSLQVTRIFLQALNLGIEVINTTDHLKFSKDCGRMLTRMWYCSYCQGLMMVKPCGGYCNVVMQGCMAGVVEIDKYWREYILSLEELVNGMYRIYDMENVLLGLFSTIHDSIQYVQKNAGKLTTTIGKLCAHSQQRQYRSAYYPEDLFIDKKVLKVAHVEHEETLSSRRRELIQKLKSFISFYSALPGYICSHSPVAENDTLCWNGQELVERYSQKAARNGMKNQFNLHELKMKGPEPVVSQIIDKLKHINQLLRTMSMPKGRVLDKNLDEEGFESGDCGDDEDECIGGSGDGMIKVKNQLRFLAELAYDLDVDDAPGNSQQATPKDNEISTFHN

T1 sequence (P51654 25-559 limits assumed): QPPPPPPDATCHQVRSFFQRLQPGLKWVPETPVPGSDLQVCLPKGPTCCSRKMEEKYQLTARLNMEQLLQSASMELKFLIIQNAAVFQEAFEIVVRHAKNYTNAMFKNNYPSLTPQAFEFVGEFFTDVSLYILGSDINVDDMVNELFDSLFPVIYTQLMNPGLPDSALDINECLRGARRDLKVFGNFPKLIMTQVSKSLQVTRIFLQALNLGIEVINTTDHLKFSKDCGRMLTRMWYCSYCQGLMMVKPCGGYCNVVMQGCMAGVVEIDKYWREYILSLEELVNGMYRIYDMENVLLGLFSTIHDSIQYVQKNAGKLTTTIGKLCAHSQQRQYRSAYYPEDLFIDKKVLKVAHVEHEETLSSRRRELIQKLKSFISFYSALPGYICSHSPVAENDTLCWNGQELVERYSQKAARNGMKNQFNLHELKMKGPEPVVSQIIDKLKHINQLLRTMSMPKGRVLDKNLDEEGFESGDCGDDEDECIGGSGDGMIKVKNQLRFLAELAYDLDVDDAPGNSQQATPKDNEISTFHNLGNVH

Kd (GPC3-his蛋白): 1.93 nM
Kd [1]: 6.25 nM
B1: 32A9IgG重组蛋白 (抗体32A9, anti-GPC3 fully human antibody, IgG form) (antibody, V domains shown)
VH: EVQLLESGGGLVQPGGSLRLSCAASGFTFSSYAMSWVRQAPGKGLEWVSGIAYNGASTAYADSVKGRFTISRDNSKNTLYLQMNSLRAEDTAVYYCAKSAGSFDYWGQGTLVTVSS
VL: DIQMTQSPSSLSASVGDRVTITCRASQSISSYLNWYQQKPGKAPKLLIYSASSLQSGVPSRFSGSGSGTDFTLTISSLQPEDFATYYCQQDYAYPYTFGQGTKVEIK
notes: also called 32A9IgG蛋白
